Measurements published in the supplement of paper PMC11908140.

B1: library; numbered along this chain (parent)
chain: MRKPRAAVGSGHRKQAASQEGRQKHAKNNSQAKPSACDGLARQPEEVVLQASVSSYHLFRDVAEVTAFRGSLLSWYDQEKRDLPWRRRAEDEMDLDRRAYAVWVSEVMLQQTQVATVINYYTGWMQKWPTLQDLASASLEEVNQLWAGLGYYSRGRRLQEGARKVVEELGGHMPRTAETLQQLLPGVGRYTAGAIASIAFGQATGVVDGNVARVLCRVRAIGADPSSTLVSQQLWGLAQQLVDPARPGDFNQAAMELGATVCTPQRPLCSQCPVESLCRARQRVEQEQLLASGSLSGSPDVEECAPNTGQCHLCLPPSEPWDQTLGVVNFPRKASRKPPREESSATCVLEQPGALGAQILLVQRPNSGLLAGLWEFPSVTWEPSEQLQRKALLQELQRWAGPLPATHLRHLGEVVHTFSHIKLTYQVYGLALEGQTPVTTVPPGARWLTQEEFHTAAVSTAMKKVFRVYQGQQPGTCMGSKRSQVSSPCSRKKPRMGQQVLDNFFRSHISTDAHSLNSAAQ

Variants of: B1
Assay: 8OG:A repair function score (normalized; synonymous = 0, nonsense = -1) (normalized log-likelihood score); higher = more repair activity (WT-like)
Conditions: with 8OG:A DNA repair reporter (GFP) in HEK-293 MUTYH KO cells
Method: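 Saturation mutagenesis (NNN codon scan) of the MUTYH cDNA (521-aa nuclear isoform NM_001048174.1 / NP_001041639), stably expressed under doxycycline induction in HEK-293 MUTYH knockout cells. Cells were co-transfected with an 8OG:A-bearing GFP repair reporter plus mCherry and sorted 72 h later into GFP+ and GFP− bins, three replicates per tile. The Rosace log2 enrichment (GFP+ vs GFP−) was converted per tile to a normalized function score with synonymous variants centered at 0 and nonsense variants (codons 1-471) at -1; low-abundance variants were removed.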

8OG:A repair function score, by site and new letter:
S55: F -0.000223 | D 0.00222 | K 0.000876 | C -0.043 | E -0.00704 | H -0.00673 | I -0.0166 | G 0.00135 | L -0.149 | A 0.00283
A41: H -0.0884 | F 0.0355 | K -0.0537 | Y -0.107 | W -0.0976 | C -0.0569 | G -0.0656 | T 0.0139 | N 0.0813 | I 0.0909 | Q 0.168 | P 0.00904 | D -0.0561 | E -0.0689 | L -0.0575 | V -0.0754 | M -0.0227 | S -0.048 | R 0.0859
L40: M 0.227 | I -0.0464 | P 0.00594 | R 0.0698 | D 0.21 | T 0.087 | Y 0.179 | A 0.139 | V 0.0896 | G 0.0939 | N 0.042 | E 0.0138 | H 0.00147 | K 0.127 | C -0.0146 | S 0.073 | W 0.123 | Q 0.0733 | F 0.134
V47: K 0.00868 | Y -0.0242 | Q -0.0401 | L -0.135 | A 0.101 | C 0.0227 | R -0.00231 | T -0.0192 | W 0.0191 | F 0.0442 | M -0.0812 | D -0.0274 | I 0.0706 | E -0.116 | G -0.0668 | H 0.0522 | N 0.0108 | S -0.0698 | P -0.0988
E45: I -0.0125 | G 0.13 | Y 0.0286 | C -0.0211 | D 0.155 | R 0.0409 | H 0.0965 | L -0.0561 | K -0.0451 | P -0.0802 | N 0.01 | F -0.059 | S -0.0822 | V -0.122 | T 0.0748 | M 0.00456 | Q -0.0405 | A -0.024
G39: L 0.0565 | M 0.24 | P 0.0274 | Y -0.0346 | R 0.0558 | N 0.241 | A 0.101 | H -0.44 | F 0.045 | V 0.0274 | I -0.0353 | K 0.121 | T 0.103 | D 0.118 | C -0.0254 | E 0.0199 | S 0.0658
V53: E 0.00193 | I -0.0188 | S 0.00307 | W -0.276 | Y -0.0142 | A 0.00104 | R 0.00694 | D 0.00694 | G -0.0541 | M -0.112 | C 0.000965 | N -0.0892 | H 0.00594 | K -0.0093 | Q -0.0248 | L -0.024 | P -0.254 | T -0.0126 | F -0.00754
A36: R -0.15 | L -0.0486 | I -0.0893 | F 0.0951 | G -0.011 | S -0.0113 | W -0.0681 | D -0.0511 | E 0.00159 | K -0.187 | M -0.076 | V 0.0896 | C 0.066 | N -0.0203 | T 0.118 | H 0.146 | Q -0.0644 | P 0.00994
E46: W -0.0064 | R 0.0933 | L -0.211 | F 0.0911 | I 0.0225 | C 0.0656 | S -0.0996 | Y -0.0657 | D 0.0496 | H -0.0875 | Q 0.0688 | K -0.0383 | A 0.0651 | T 0.134 | M -0.119 | P 0.0495 | G -0.0545 | N -0.0764 | V 0.0528
P34: R 0.0769 | T -0.0245 | Q 0.146 | S 0.0874 | V -0.0896 | W 0.133
L49: W -0.109 | H 0.0564 | R 0.00838 | G -0.027 | P 0.109 | T 0.0602 | I -0.0224 | Q -0.00358 | S 0.027 | M 0.233 | A 0.0219 | C 0.125 | K -0.236 | V -0.0831 | N 0.241 | Y -0.0309 | F -0.0825 | D 0.0266 | E 0.0582
Q43: P 0.054 | N -0.0614 | A 0.0603 | H 0.0802 | D 0.0131 | V -0.0464 | I 0.0991 | K 0.0479 | T 0.0245 | W -0.0384 | R 0.0791 | C 0.138 | E 0.0951 | Y -0.0469 | M 0.0733 | G -0.0204 | F 0.0374 | S -0.0281 | L 0.0948
P44: N -0.0778 | C -0.247 | H -0.0386 | E -0.0552 | Y -0.212 | F -0.202 | M -0.107 | W -0.102 | L -0.133 | G -0.111 | K 0.00377 | Q -0.113 | D -0.119 | V -0.0774 | I -0.165 | T 0.166 | A -0.142 | S -0.107 | R -0.0646
Q50: F -0.0563 | I -0.135 | M -0.0659 | N 0.00105 | P 0.126 | V -0.0513 | S 0.0939 | G -0.0798 | A -0.00978 | H -0.0435 | D 0.088 | R 0.0284 | W 0.014 | C 0.0151 | Y -0.0626 | E 0.0122 | T -0.147 | L -0.0733 | K 0.0673
R42: E 0.021 | M -0.196 | Q 0.102 | P -0.176 | H 0.0289 | T -0.0609 | G 0.0112 | A 0.112 | V 0.0781 | W 0.0271 | F 0.00894 | K 0.0776 | I -0.00552 | C 0.0324 | Y 0.0172 | N 0.0413 | L -0.0705 | S 0.0235 | D 0.0284
S54: Y 0.00243 | D -0.029 | W -0.423 | R -0.0174 | A 0.00533 | F -0.0664 | I -0.00479 | P 0.00682 | N -0.00348 | T -0.0217 | Q 0.00389 | K -0.0583 | G 0.00441 | L 0.00619 | M -0.0179 | E 0.00656 | V -0.0294 | H 0.0058 | C 0.00525
A51: M -0.607 | F -0.116 | D 0.029 | V 0.0738 | K 0.124 | G -0.0113 | S 0.0659 | L -0.036 | C 0.0297 | I -0.041 | E 0.0222 | Q 0.214 | N -0.00641 | Y 0.00468 | R 0.00957 | P 0.142 | W 0.101 | H 0.0322
S52: Y 0.0053 | K 0.0066 | L 0.00142 | P -0.0118 | Q -0.0208 | V -0.00119 | M -0.00303 | A 0.00623 | I -0.0155 | R 0.00314 | F -0.0245 | W -0.00265 | C -0.0302 | E -0.00064 | D -0.0111 | N -0.0834 | H -0.0255 | T 0.00677 | G -0.00057
V48: A 0.00435 | M -0.0648 | G 0.0279 | Q 0.0497 | W 0.0774 | L -0.0249 | D 0.0961 | K 0.119 | N 0.0431 | E -0.122 | H 0.0666 | Y -0.141 | I 0.0882 | P -0.11 | F -0.0263 | S -0.0148 | C 0.0424 | R 0.0418 | T -0.0154
